Experimental data as given in the domain aggregation screens of Martell et al. (2025).

Assay: soluble fraction after stress (log2 fold change); higher = more stays soluble; pooled small domains, quantitative proteomics
Details: stress: 75 degC
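Note: 20 min heating vs room temperature control held 20 min.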

## HMAKPVKSPLPGSVIKVAVKVGQQIKRGDLLLTLESMKMENSILAEKDGVVKNIHVQAGQSVMQDDLLLDI
  soluble fraction (log2): -0.88

## HMAKPVNISAEPYHYDPTRFRVTFELPRLSDQPRKRIRKVAPAGLDREQALAWAKRLEREVLHELLR
  soluble fraction (log2): -1.08

## HMAKVSVNIILKDGVDQTTFVNDVTSNTEVDLKNQLISLPQMVVLSVEEDYINTLKSHSSISILELDE
  soluble fraction (log2): -0.296

## HMALALDDLFDRYEQLQDQSLGDKTEEGQELRAMIRAYIEQEGLSVRVTRSTTNRELLELIEQEMEG
  soluble fraction (log2): -0.306

## HMALENTDLYAHLRLSHTASVPEIQAALSARVKHMPLQTWLLARKWLLHPRLRERYDGMWSVRFGA
  soluble fraction (log2): -2.87

## HMALGRTGEVYLPIPAGRAGHGKISITLQGALREVDAVTAGEALPRGTSVRVVDVAGNGVLLVEK
  soluble fraction (log2): -0.206

## HMALHDTLSYEEYLDLGLNGKADSAEKRELVAHALHLGRPNAKTLYKRLNMLQLNRKDVAALLEQ
  soluble fraction (log2): 0.097

## HMALHLPTTTINGRQYYYFKSKEKITVYGLSKRLGLTRQEIVEHNPSAVDGIKRGSTLYFPVDEFAD
  soluble fraction (log2): -2.12

## HMALLKRQDEILMYLYTQNKWITGNELAQLFHVSLRTIRNDISFINTEKSNSVLSNRNKGYHIAKDFVYNE
  soluble fraction (log2): -1.26

## HMALPDSEKRQWLVDEVNERGLKLPDDVLEYLFARVGRSQAHLVDVIEKLDFESLAQSRKLTIPFVREVLK
  soluble fraction (log2): -0.225

## HMALPRYFFRTRENGAVLFKTPVNNHQNRLEMHQIAAINIRNETVKPLGDTVLTDEETELIADWMRERKTV
  soluble fraction (log2): -0.782

## HMALSVRNRMSDLLRMLGDGEFHRFENLFSLEEGRHGIVVTFLAMLELAKEQLVEISQGESLAPIYLKSLA
  soluble fraction (log2): -1.05

## HMAMDVKEVLLPGVGLRYEFDNSDGDRIGVIAKRSGDFEVVRYTAADRDAAQPMFRLTDEEADALAQILGA
  soluble fraction (log2): 0.224

## HMAMDYYAIGQRIRKFRKAHDWSQEELAEKVEISTTHMSHIETGSTKLSLPVLVSLANVLDVRTDDLLF
  soluble fraction (log2): -3.81

## HMAMKFQDIVRQKRKELGLTQEQAARRLGVSPAAVSKWESGQSLPDTPLFAPLARLLHTDLNTLLSFE
  soluble fraction (log2): -1.21

## HMAMTQNVDLAGRIVFNEKKEEVFNFGKHKGRSVAEVFEKEPSYYDWMLKGDFPAETKQVLTALRLRGLS
  soluble fraction (log2): -0.186

## HMAMTRTEYLNQLKHYLKRLPHTDYEEAMDYFKEYFEEAGPENEAQVIQDLGNPKEAAYEILSQLL
  soluble fraction (log2): -0.0595

## HMANDNFPLKLGSKGPRVLQLKTMLIQSLSNDALPKGRSSDAFDSELEALLSRNNLPTVIDETNFRVLTK
  soluble fraction (log2): -0.0514

## HMANFGSILRNLRISRDITQSELAAKLGVSRSTVGMYETGAREPDFEAMEAIADTFNVDMDYLVGRSQ
  soluble fraction (log2): -0.258

## HMANLAQITKTNAVALALKDVGAYNSEDLMKFIDLDKVVLGEDGKPQLEDTINSLKESSPYLFQ
  soluble fraction (log2): 0.134

## HMANMTAKQINMFGDKLSRDKDFQSYYIAKSGDSREQYAQDIKGKLLDPFYVNAWMPYLEKIGFVPS
  soluble fraction (log2): 0.0935

## HMANPEFAGYINGKPYFGPTHQHRGVKMLGATHTRNPHPLVWDSIAESLANYDSRFRWSGGQIL
  soluble fraction (log2): -0.853

## HMANTAKVNVDTANLRETADENSKILKQLSLNDNLEVVEETGDWYKVKNSNVTGYVRKDLVTVEN
  soluble fraction (log2): 0.31

## HMANTLDPMDLKQIISLHLDGFSNRKIGATLGISRNTVNTYMRLFSVSDYALKELLTLDNATLDKLFPS
  soluble fraction (log2): -2.06

## HMANYYEILGVKHDATEAEIKAAYKQAAKSAHPDAGGSNEKMQEVNAAWEVLGNAQKRAEYDARMA
  soluble fraction (log2): 0.173

## HMAPAGGITRQDLFAWGLMGGEGSREKRQQLKKSLGLPSHLGTSGFLDALNLIATRDQVEALLHK
  soluble fraction (log2): -0.564

## HMAPAILTVQVKPDKIREIIGPGGKMIRMIQSETNTRVEVDDSGLVKIAAVSKEEGEAALKMVSDITME
  soluble fraction (log2): 0.331

## HMAPDAPDGFVHRWIRAEMLGQEDKSNVHRRMQEGYELVRADEYPDSDLPVAEGRYAGIIGVGGLLLARF
  soluble fraction (log2): -0.206

## HMAPDDTAVWSAFIGWFRTAPDGPNPLGAYAAKLGEEGLDAAEVGRRMTVIVRLFAEKPEGAEVFYDRTYA
  soluble fraction (log2): -2.66

## HMAPDYYALLGVPRNATTAEVRKAFRGKALEQHPDRGGDEESFRLLSKAYDVLSDSERRKYYDRTG
  soluble fraction (log2): -0.0151
